# Patent US20120282271
# Tests used:
# [1] = system: pro-MSP (single-chain recombinant human pro-macrophage-stimulating protein, C672A)
# [2] = system: pro-MSP-R483E (cleavage-site mutant of pro-MSP)
# pro-MSP-R483E (cleavage-site mutant of pro-MSP), sequence (chain, as listed by the source R483E): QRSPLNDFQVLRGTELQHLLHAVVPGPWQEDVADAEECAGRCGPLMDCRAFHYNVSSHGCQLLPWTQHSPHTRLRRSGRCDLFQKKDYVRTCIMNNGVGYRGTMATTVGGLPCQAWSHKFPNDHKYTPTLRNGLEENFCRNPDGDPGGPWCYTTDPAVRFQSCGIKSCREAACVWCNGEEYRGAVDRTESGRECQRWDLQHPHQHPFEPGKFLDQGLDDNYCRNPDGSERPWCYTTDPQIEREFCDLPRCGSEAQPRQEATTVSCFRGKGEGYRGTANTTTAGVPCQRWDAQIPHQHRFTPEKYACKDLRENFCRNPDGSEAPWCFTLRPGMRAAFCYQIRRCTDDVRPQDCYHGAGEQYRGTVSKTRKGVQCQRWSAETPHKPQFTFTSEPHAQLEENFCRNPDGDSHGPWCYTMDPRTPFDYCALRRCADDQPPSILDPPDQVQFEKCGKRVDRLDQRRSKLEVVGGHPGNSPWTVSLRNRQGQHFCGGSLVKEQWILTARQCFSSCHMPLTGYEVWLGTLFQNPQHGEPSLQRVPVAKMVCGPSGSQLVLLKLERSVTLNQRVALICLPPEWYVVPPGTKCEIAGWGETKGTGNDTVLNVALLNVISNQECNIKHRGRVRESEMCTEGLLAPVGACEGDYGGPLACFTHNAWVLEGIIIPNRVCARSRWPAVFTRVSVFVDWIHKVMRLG
# extracellular domain of human recombinant hepsin, sequence (chain, as listed by the source): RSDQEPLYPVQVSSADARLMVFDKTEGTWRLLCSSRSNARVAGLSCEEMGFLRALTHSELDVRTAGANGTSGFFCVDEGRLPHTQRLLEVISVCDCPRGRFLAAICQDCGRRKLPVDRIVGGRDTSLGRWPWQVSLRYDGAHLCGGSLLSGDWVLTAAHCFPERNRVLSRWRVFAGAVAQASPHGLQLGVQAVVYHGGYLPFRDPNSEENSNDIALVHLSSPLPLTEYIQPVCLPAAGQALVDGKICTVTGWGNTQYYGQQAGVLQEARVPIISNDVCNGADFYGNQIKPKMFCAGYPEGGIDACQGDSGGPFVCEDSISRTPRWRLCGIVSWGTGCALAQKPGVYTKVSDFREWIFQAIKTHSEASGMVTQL
substance,measurement,setting,value
extracellular domain of human recombinant hepsin,"proteolytic activation of pro-MSP, gel-mobility shift on reducing SDS-PAGE (hepsin 1.25-10 nM, 37° C.)",[1],Hepsin activated pro-MSP in a dose-dependent and time dependent manner
same,"proteolytic processing by hepsin, SDS-PAGE",[2],Hepsin did not cleave this mutant pro-MSP despite prolonged incubation (24 hours)
